Test results as given in article PMC8307404, “Crystal Structure-Guided Design of Bisubstrate Inhibitors and Photoluminescent Probes for Protein Kinases of the PIM Family” (Molecules, 2021).
Square brackets hold non-standard residues; d marks the D form. Peptide text beside a SMILES is read from it. * marks the point of attachment. X3 = O=C(CCCCCNCc1nc2c(sc3cc(Br)cnc32)c(=O)[nH]1)*

What was measured:
Experiment in all cases: Kinase profiling (radiometric filter-binding)
Assay type in all cases: biochemical
IRR = IRR (Homo sapiens, UniProt P14616); details: 1 µM inhibitor, read-out: Residual activity, %
Procedure, shortened: (§1)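 Human kinase, ATP (≤ KM) and test compound (1 µM final) were combined; phosphorylation was quantified by radiometric filter binding. Activity left was normalised to the control reaction without compound.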

IR = IR (Homo sapiens, UniProt P06213); details: 1 µM inhibitor, read-out: Residual activity, %
Procedure, shortened: as §1

MKK6 = biological target: T1, MKK6 (Homo sapiens, UniProt P52564); details: MKK6, 1 µM inhibitor; read-out: Residual activity, %
T1 sequence (P52564 1-334): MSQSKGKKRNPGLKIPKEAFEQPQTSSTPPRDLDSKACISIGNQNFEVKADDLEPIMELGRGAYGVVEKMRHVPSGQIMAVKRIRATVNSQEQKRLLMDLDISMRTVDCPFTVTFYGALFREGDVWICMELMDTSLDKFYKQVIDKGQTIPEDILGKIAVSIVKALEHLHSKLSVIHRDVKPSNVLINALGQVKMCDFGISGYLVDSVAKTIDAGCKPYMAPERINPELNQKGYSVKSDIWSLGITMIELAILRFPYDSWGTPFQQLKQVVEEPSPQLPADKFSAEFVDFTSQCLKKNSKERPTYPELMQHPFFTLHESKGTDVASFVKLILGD
Procedure, shortened: as §1

CHK1 = biological target: T2, CHK1 (Homo sapiens, UniProt O14757); details: CHK1, 1 µM inhibitor; read-out: Residual activity, %
T2 sequence (O14757 1-476): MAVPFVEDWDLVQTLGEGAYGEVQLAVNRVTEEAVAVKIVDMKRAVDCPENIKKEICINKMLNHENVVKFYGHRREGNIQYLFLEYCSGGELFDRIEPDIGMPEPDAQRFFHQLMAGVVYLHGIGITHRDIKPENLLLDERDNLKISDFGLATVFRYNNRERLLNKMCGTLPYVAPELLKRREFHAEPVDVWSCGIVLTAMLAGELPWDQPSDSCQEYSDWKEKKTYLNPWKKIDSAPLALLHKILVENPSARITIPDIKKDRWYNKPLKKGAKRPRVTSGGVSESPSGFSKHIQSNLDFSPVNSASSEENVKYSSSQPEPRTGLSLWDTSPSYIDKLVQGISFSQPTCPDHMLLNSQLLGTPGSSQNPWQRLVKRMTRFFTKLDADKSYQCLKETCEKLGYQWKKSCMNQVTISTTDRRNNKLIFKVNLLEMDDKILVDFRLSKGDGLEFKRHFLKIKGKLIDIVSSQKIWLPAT
Procedure, shortened: as §1

ERK5 = ERK5 (Homo sapiens, UniProt Q13164); details: ERK5, 1 µM inhibitor; read-out: Residual activity, %
Procedure, shortened: as §1

EPH-B2 = biological target: T3, EPH-B2 (Homo sapiens, UniProt P29323); details: EPH-B2, 1 µM inhibitor; read-out: Residual activity, %
T3 sequence (P29323 19-1055): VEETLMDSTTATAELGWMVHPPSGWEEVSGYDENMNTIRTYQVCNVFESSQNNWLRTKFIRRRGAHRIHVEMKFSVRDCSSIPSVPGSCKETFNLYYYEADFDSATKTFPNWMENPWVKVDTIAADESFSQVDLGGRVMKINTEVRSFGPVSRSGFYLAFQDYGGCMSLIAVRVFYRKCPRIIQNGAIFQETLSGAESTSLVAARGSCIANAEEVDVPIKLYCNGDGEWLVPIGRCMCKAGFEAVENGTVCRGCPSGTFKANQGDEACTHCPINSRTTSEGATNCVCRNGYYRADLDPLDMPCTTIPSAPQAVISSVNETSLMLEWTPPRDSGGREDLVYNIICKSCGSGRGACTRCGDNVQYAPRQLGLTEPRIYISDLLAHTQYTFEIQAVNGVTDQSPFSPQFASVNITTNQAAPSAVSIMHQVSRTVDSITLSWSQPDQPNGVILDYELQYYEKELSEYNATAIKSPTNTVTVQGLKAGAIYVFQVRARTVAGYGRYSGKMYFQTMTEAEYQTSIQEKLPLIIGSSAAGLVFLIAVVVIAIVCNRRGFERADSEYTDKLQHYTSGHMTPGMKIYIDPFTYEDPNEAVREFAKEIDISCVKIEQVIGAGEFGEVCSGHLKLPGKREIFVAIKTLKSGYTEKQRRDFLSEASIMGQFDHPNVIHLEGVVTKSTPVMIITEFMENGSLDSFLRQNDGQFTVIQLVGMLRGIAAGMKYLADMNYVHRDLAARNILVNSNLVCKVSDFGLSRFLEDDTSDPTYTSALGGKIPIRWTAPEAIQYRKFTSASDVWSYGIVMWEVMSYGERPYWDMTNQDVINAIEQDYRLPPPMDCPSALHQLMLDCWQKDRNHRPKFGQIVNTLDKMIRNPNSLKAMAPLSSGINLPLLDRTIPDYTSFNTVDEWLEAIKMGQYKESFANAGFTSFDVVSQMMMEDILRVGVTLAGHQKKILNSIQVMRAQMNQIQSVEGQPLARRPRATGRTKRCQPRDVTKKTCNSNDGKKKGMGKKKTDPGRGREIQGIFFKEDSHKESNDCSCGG
Procedure, shortened: as §1

Chain of ERK5 (Q13164 whole entry): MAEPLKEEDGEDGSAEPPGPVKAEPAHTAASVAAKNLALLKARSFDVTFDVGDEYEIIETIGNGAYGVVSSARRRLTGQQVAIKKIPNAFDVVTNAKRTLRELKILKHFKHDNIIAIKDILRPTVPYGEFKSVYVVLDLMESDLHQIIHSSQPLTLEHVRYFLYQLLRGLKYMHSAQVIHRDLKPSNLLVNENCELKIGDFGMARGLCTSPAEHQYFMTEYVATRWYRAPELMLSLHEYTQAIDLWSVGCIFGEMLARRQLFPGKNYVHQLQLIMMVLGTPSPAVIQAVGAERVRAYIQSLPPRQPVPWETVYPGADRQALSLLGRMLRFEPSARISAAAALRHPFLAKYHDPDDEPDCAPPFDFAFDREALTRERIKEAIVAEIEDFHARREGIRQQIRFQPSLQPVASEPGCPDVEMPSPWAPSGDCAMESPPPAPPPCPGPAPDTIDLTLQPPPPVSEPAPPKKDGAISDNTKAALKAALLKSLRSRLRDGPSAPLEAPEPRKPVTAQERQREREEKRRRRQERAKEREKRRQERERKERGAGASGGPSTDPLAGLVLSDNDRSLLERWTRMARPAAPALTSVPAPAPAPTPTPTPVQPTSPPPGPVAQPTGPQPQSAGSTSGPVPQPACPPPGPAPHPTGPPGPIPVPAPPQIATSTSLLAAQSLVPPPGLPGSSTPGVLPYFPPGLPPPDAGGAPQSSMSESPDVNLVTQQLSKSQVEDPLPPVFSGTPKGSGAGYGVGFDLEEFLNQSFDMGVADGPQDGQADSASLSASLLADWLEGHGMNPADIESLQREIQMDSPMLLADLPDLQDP
Chain of IR (P06213 28-1382): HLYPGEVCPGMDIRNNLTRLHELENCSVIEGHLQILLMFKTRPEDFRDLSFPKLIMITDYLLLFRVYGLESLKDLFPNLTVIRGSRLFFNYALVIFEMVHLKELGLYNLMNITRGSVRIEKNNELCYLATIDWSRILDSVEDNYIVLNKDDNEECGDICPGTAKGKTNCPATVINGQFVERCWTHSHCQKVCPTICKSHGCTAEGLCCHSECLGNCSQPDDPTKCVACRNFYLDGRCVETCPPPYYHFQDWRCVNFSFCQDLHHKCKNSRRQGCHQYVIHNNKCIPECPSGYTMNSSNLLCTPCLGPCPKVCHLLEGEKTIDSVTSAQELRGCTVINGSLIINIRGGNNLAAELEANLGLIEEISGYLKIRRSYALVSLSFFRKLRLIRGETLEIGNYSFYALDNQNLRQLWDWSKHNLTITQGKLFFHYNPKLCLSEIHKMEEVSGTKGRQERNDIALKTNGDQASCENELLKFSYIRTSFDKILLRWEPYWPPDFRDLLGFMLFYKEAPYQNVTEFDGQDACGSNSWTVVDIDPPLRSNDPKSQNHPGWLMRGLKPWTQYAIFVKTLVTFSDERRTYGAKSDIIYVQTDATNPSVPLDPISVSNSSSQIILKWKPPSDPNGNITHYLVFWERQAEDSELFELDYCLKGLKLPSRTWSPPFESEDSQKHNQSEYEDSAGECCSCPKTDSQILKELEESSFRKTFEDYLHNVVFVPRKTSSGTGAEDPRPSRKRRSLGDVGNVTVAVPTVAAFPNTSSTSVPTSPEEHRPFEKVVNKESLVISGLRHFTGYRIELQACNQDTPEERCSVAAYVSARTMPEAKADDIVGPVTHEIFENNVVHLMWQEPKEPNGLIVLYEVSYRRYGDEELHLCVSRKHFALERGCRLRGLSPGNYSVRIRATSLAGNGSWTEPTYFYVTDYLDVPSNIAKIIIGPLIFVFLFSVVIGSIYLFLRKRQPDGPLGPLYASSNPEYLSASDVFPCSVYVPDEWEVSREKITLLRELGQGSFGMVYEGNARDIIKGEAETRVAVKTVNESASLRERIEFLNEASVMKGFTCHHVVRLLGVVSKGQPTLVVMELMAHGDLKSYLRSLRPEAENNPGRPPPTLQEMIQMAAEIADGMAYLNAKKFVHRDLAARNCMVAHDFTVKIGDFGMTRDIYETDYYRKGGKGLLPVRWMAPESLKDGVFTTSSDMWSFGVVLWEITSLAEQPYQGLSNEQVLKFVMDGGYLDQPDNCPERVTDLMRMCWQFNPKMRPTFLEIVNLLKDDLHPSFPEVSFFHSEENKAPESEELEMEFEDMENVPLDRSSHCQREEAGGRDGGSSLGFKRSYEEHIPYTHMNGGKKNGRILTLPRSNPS
Chain of IRR (P14616 27-1297): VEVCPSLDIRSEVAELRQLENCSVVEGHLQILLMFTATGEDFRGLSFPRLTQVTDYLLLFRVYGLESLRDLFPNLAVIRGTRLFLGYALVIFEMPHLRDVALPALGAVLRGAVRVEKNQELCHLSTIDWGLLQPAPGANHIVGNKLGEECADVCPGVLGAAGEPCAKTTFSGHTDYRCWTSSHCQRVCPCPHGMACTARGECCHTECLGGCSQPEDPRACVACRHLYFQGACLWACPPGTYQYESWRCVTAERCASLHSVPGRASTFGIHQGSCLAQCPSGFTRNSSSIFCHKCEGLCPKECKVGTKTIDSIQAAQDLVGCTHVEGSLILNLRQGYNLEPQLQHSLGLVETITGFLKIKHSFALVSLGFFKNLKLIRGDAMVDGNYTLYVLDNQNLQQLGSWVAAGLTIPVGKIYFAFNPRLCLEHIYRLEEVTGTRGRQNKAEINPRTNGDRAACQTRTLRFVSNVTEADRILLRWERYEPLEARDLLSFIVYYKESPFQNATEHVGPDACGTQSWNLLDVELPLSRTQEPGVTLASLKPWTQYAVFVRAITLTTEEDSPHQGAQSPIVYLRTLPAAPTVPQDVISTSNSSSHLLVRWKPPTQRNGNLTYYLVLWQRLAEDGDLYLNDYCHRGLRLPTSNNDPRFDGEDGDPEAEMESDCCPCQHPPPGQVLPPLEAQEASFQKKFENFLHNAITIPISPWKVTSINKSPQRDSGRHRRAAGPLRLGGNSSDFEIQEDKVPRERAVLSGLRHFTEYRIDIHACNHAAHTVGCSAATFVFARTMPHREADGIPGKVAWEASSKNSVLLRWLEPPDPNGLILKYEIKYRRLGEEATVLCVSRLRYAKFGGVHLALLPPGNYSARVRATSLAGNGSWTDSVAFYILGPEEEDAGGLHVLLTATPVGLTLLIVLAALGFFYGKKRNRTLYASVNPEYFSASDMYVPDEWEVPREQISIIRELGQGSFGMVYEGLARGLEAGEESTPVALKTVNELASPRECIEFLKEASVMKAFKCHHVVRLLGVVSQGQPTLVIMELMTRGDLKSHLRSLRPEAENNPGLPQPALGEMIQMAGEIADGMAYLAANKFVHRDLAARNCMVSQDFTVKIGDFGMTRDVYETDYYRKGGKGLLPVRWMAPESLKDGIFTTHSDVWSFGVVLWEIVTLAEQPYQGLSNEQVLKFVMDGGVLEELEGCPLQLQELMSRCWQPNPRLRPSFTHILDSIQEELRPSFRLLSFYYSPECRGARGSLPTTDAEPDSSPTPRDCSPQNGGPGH

Compound | remaining activity at 1 µM (IRR) [%] | remaining activity at 1 µM (IR) [%] | remaining activity at 1 µM (MKK6) [%] | remaining activity at 1 µM (CHK1) [%] | remaining activity at 1 µM (ERK5) [%] | remaining activity at 1 µM (EPH-B2) [%]
N=C(N)NCCC[C@@H](NC(=O)CCCCCNC(=O)Cn1cnc2c(I)c(I)c(I)c(I)c21)C(=O)N[C@H](CCCNC(=N)N)C(=O)N[C@H](CCCNC(=N)N)C(=O)N[C@H](CCCNC(=N)N)C(=O)N[C@H](CCCNC(=N)N)C(=O)N[C@H](CCCNC(=N)N)C(=O)N[C@H](CCCCN)C(N)=O [ARC-3125, TIBI-CH2-C(=O)-Ahx-(D-Arg)6-D-Lys-NH2] | 20 ± 34 | 22 ± 6 | 110 ± 10 | 76 ± 1 | 47 ± 1 | 102 ± 8
N=C(N)NCCC[C@@H](NC(=O)CCCCCNCc1nc2c(sc3cc(Br)cnc32)c(=O)[nH]1)C(=O)N[C@H](CCCNC(=N)N)C(=O)N[C@H](CCCNC(=N)N)C(=O)N[C@H](CCCNC(=N)N)C(=O)N[C@H](CCCNC(=N)N)C(=O)N[C@H](CCCNC(=N)N)C(=O)N[C@H](CCCCN)C(N)=O [ARC-3126, BPTP-Ahx-(D-Arg)6-D-Lys-NH2] (X3-[dR][dR][dR][dR][dR][dR][dK]-NH2) | 75 ± 4 | 117 ± 6 | 105 ± 1 | 100 ± 6 | 92 ± 1 | 107 ± 4
N=C(N)NCCC[C@@H](NC(=O)CNC(=O)[C@@H](CCCNC(=N)N)NC(=O)[C@@H](CCCNC(=N)N)NC(=O)CCCCCCCNCc1nc2c(sc3cc(Br)cnc32)c(=O)[nH]1)C(=O)N[C@H](CCCCN)C(N)=O [Compound 1, BPTP-Aoc-(D-Arg)2-Gly-D-Arg-D-Lys-NH2] | 99 ± 2 | 122 ± 7 | 122 ± 2 | 122 ± 17 | 111 ± 9 | 95 ± 16
N=C(N)NCCC[C@@H](NC(=O)CNC(=O)[C@@H](CCCNC(=N)N)NC(=O)[C@@H](CCCNC(=N)N)NC(=O)CCCCCCCNCc1nc2c(sc3ccc(Br)cc32)c(=O)[nH]1)C(=O)N[C@H](CCCCN)C(N)=O [Compound 2, BBTP-Aoc-(D-Arg)2-Gly-D-Arg-D-Lys-NH2] | 99 ± 5 | 139 ± 35 | 121 ± 3 | 112 ± 6 | 77 ± 5 | 100 ± 5
N=C(N)NCCC[C@@H](NC(=O)CNC(=O)[C@@H](CCCNC(=N)N)NC(=O)[C@@H](CCCNC(=N)N)NC(=O)Cn1cc(CNCc2nc3c(sc4ccc(Br)cc43)c(=O)[nH]2)nn1)C(=O)N[C@H](CCCCN)C(N)=O [Compound 3, BBTP-Amt-(D-Arg)2-Gly-D-Arg-D-Lys-NH2] | 110 ± 1 | 113 ± 23 | 126 ± 10 | 104 ± 2 | 93 ± 4 | 96 ± 14
